Where two headings read alike, the source gives them in different places.
Experiments:
[1] = target: coagulation factor IXa (FIXa) (UniProt P00740+P00740); conditions: FIG. 20 legend gives >>5 uM
[2] = system: E2F
[3] = system: E2F; remark: listed apart in the source
[4] = target: coagulation factor Xa (FXa) (UniProt P00742+P00742)
Chain of coagulation factor Xa (FXa) (P00742 41-179, chain 1 of 2): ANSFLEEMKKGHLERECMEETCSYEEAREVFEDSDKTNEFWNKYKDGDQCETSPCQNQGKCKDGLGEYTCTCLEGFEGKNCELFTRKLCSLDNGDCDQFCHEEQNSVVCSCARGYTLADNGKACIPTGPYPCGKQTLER
Chain of coagulation factor Xa (FXa) (P00742 235-488, chain 2 of 2): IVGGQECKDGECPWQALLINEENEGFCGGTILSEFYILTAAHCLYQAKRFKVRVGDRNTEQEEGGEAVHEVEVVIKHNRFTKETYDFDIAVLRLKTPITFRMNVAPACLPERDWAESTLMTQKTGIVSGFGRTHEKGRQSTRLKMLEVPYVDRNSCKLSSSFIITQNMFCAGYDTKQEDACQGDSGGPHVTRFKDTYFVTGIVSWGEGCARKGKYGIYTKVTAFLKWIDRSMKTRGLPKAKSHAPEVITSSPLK

Chain of coagulation factor IXa (FIXa) (P00740 47-191, chain 1 of 2): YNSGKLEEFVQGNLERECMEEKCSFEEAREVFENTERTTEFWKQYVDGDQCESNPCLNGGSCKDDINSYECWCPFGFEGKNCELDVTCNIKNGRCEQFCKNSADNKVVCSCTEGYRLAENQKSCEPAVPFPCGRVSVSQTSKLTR
Chain of coagulation factor IXa (FIXa) (P00740 227-461, chain 2 of 2): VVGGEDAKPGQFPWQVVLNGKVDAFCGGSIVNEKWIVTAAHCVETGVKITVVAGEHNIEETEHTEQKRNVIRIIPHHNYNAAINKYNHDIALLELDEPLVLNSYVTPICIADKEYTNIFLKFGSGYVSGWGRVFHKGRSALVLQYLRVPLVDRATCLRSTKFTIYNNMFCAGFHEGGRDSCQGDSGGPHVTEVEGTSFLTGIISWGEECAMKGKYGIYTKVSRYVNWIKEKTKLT

| Substance | Kd ([2]; random region only) [nM] | also measured |
| --- | --- | --- |
| 9.3tM | – | Kd [1]: > 10000 nM |
| AAUGGAAUCACUGAAGGCCCUCCGUAGCACCUAACACAGU [E2F aptamer 221] | 1.5 | – |
| ACCUCGACCCUUCACCUGACUCUCCCAGAAGUUCUGUUUC [E2F aptamer 219] | 2 | – |
| AUCCCCGCCGUAAGCCGUCCUGAUGGACACCACACGCCGC [E2F aptamer 226] | – | Kd ([2]; random region only, table and listing differ near 5' end): 2 nM |
| CAAGCGCUGAAACCAAUGCACCCCACCCCACACUGGUGUAC [E2F aptamer 204] | 1.25 | – |
| CAAGCGUAUACCCUACCCACACUGAGCUACAUUGCGCUGA [E2F aptamer 213] | 8 | – |
| CACUGAACGAAUGGCAACCGCCAAACCCUACCCACACUGG [E2F aptamer 212] | – | Kd ([2]; listed as assignment inferred): 0.2 nM |
| CAGAUUACCCUACCCACACUGCGUGCGGACAACCAUUGGC [E2F aptamer 201] | 0.4 | – |
| CCACCCGAAGCAAAUCAAGCCCGACGGCGCUCGGACCAAC [E2F aptamer 217] | 15 | – |
| CGAACGAACUGUGGACCCUACCCACACUGGGCCAAGCGAU [E2F aptamer 207] | 0.4 | – |
| CGUCACUCCGUCCCAGCCGACGAAGUCCGUAAUUCCUCCA [E2F aptamer 216] | 45 | – |
| GCACUAAACUUCGAUUACCCCCCACCCACACUGGCUGCAC [E2F aptamer 200] | 4 | – |
| GCAUCCUGCCAGCGGCGACGGACCUUCGCCCACAGGCCUC [E2F aptamer 222] | 2 | – |
| GCCGAGAGUGAGUGACCACAACCCCGCCCACACUGGAAUA [E2F aptamer 214] | 1.5 | – |
| GCUGCCGCGCCUGGACCCCACCCACAUAUGGGCCACACAC [E2F aptamer 189] | – | Kd ([2]; random region only, listing prints T for U): 1.5 nM |
| GGGAGAGAGGAAGAGGGAGGGAAAGCACACGAAGCCCCAGCAAAACCCCACAGGCAAACCCAGAGGCGAAGACGGACCCCCC [E2F 10-3 / 10-7 / 10-11 / 10-12] | – | Kd ([3]; printed sequence appears to lack U residues (compare SEQ 223)): 1 nM |
| GGGAGAGAGGAAGAGGGAGGGAAGGAACACGAAGGCCCCCGAGCACCAACACAGCAAACCCAGAGGCGAAGACGGACCCCCC [E2F 10-1 / 10-8] | – | Kd ([3]; printed sequence appears to lack U residues (compare SEQ 221)): 1.5 nM |
| GGGAGAGAGGAAGAGGGAGGGACCCCGCCGAAGCCGCCGAGGACACCACACCCGCCAAACCCAGAGGCGAAGACGGACCCCCC [E2F 10-6] | – | Kd ([3]; printed sequence appears to lack U residues (compare SEQ 226)): 2 nM |
| GGGAGAGAGGAAGAGGGAGGGAGAAACACAGAAGCCCGCGCGACACCCCACGCAAACCCAGAGGCGAAGACGGACCCCCC [E2F 10-4] | – | Kd ([3]; printed sequence appears to lack U residues (compare SEQ 224)): 5 nM |
| GGGAGAGAGGAAGAGGGAGGGCAAACCACAGACCCAACGCAGGAGCACCCACCCACACGGGACAGCAAACCCAGAGGCGAAGACGGACCCCCC [E2F 10-5] | – | Kd ([3]; printed sequence appears to lack U residues (compare SEQ 225)): 2.5 nM |
| GGGAGAGAGGAAGAGGGAGGGGCACCGCCAGCGGCGACGGACCCGCCCACAGGCCCCAAACCCAGAGGCGAAGACGGACCCCCC [E2F 10-2] | – | Kd ([3]; printed sequence appears to lack U residues (compare SEQ 222)): 3 nM |
| GGGAGAGAGGAAGAGGGAUGGGAAAAUACGCCANNCGAGAUUAUACUUGGCCCCGCUAAUACCAUAACCCAGAGGUCGAU [D6-6] | – | Kd [4]: 3.1 nM |
| GGGAGAGAGGAAGAGGGAUGGGAGUCCGACUGGAGAACANGUACUCUAUAAGCACUUNCAUNCANCAUAACCCAGAGGUCGAU [E10-7] | – | Kd [4]: 69.5 nM |
| GGGAGAGAGGAAGAGGGAUGGGCCAUUGCUNCCCUGAACANGGGCNCCACNCCGCCUNCACAGUCAUAACCCAGAGGUCGAU [E10-1] | – | Kd [4]: 51.7 nM |
| GGGAGAGAGGAAGAGGGAUGGGNGAUUAGCCCNAGCGAGAUANUACUUGGCCCCGCUACNUCCAUAACCCAGAGGUCGAU [D7-8] | – | Kd [4]: 14.5 nM |
| UAUGAAAUCACAGAAGCCCGCGUUCGACACCUCCACUGUU [E2F aptamer 224] | 3 | – |
| UUAUAUAGCACACUGAAGCCCUCAGCAAAACCUCCACAGG [E2F aptamer 223] | 1.5 | – |
| UUUCCUAUGGCGAUAACUUCAGCCACGCCGGCGCCCCGUG [E2F aptamer 215] | 30 | – |

From US20030175703
